This is an account of results in patent publication US20030108554A1 (published 2003).

In one test the target is T1, DOC1-related protein (human, UniProt Q4L180 241-1128).
T1 sequence: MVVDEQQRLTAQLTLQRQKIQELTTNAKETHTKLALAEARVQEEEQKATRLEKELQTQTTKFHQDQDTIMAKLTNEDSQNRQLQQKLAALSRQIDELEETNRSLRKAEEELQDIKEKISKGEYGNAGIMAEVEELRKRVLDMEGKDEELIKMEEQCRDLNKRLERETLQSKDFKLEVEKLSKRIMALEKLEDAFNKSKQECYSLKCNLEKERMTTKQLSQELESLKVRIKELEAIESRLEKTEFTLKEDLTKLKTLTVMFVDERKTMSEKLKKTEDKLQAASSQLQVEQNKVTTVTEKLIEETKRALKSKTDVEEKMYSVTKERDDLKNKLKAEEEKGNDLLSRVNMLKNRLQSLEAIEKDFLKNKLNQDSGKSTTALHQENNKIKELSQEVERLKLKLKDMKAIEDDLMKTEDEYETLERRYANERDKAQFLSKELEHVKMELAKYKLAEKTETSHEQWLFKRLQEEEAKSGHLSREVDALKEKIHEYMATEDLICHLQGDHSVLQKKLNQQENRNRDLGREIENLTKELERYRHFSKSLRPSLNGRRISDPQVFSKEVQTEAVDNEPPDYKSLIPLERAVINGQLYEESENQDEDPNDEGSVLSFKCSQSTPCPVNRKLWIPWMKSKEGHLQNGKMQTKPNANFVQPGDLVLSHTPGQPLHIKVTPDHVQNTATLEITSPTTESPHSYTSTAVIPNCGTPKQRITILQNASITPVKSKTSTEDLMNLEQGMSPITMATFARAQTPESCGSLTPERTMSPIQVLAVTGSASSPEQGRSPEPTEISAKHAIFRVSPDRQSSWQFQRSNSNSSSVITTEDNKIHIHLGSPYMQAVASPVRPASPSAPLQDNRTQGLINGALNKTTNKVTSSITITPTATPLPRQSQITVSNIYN
As to the kind of experiment: yeast two-hybrid.

Test [1] addresses T2, GIP130b with deletion of the N terminal 240-residues (human, UniProt Q4L180 241-1128).
T2 sequence: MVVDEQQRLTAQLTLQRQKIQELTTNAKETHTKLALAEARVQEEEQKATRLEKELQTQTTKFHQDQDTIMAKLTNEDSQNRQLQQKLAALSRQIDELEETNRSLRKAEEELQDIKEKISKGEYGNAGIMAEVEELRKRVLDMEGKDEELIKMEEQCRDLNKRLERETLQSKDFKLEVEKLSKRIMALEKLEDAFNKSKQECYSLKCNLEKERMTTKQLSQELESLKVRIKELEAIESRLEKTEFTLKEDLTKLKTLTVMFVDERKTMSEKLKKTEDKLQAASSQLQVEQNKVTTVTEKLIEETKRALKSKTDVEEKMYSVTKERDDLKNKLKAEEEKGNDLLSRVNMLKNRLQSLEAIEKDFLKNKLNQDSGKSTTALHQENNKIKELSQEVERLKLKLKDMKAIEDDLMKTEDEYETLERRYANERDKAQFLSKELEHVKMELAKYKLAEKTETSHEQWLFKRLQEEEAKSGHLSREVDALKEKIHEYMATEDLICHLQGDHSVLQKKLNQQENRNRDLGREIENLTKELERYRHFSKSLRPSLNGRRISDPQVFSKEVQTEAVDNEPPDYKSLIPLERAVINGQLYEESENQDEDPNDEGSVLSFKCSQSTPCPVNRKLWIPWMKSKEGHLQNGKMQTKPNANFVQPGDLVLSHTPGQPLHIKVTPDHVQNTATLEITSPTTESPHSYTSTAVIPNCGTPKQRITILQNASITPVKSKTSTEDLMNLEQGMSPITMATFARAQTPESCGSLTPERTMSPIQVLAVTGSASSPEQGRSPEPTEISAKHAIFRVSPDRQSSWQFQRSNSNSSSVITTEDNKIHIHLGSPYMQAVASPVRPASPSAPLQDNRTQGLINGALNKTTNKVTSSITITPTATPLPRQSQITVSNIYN
As to the kind of experiment: yeast two-hybrid.

The target of test [2] is T3, GIP130c with deletion of the N terminal 240-residues (human, UniProt Q4L180 241-1128).
T3 sequence: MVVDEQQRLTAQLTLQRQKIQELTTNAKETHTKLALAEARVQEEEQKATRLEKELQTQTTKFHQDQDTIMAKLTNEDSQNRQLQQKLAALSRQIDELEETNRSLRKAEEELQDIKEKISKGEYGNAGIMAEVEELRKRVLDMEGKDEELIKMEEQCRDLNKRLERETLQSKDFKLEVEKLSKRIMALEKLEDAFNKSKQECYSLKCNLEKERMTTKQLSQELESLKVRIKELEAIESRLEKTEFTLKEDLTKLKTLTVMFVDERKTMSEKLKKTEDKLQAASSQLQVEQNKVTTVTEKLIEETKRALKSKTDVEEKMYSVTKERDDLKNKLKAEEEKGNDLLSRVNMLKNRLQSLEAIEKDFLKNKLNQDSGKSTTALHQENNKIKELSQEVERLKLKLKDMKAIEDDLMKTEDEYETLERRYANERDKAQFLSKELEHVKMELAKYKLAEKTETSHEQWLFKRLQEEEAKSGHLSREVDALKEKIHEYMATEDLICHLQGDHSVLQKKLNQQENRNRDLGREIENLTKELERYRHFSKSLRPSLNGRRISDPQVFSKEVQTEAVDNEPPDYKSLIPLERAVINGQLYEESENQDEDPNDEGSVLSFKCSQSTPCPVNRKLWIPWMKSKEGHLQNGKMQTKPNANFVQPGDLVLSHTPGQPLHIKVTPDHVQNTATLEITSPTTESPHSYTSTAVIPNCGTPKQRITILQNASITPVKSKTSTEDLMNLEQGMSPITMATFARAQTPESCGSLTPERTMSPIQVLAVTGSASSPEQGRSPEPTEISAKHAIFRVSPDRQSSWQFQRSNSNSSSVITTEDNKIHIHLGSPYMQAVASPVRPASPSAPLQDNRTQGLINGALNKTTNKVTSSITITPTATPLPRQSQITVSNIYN
As to the kind of experiment: yeast two-hybrid.

The next test deals with T4, GIP130a (human, UniProt Q4L180 1-1135).
T4 construct: Full length; tested as GAL4 domain fusion in yeast two-hybrid
T4 sequence: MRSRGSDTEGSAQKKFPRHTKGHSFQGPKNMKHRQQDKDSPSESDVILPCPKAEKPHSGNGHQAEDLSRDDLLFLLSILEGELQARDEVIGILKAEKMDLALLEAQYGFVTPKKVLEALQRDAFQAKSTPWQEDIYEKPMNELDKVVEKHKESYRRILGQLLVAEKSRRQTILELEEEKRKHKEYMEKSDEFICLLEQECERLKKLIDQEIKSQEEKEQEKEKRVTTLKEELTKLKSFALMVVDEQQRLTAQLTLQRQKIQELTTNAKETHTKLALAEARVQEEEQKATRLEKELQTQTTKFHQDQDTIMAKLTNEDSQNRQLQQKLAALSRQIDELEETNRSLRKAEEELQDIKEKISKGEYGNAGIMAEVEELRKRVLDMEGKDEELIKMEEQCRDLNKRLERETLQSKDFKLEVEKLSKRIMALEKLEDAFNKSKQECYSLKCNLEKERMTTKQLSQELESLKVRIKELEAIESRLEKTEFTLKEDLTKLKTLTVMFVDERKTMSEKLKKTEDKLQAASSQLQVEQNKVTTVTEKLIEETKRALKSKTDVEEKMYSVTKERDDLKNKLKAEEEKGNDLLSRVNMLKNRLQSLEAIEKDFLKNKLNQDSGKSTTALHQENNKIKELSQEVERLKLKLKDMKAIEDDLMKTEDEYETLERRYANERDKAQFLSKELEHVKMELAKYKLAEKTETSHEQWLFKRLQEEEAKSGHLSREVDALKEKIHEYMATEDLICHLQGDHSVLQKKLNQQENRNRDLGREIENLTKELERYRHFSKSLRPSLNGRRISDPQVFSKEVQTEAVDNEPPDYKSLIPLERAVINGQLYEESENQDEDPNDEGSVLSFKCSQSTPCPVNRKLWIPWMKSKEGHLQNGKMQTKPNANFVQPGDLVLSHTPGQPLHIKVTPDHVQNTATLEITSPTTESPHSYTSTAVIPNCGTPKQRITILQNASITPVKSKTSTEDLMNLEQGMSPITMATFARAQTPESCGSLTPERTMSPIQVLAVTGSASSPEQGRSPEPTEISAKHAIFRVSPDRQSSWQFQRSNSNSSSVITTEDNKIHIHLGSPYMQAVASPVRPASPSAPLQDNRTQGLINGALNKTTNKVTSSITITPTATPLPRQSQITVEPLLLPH
As to the kind of experiment: yeast two-hybrid and three-hybrid (conclusion). The method, then: Accordingly, we have observed with a yeast three-hybrid system that GPBP expression efficiently impairs both I-20 and GIP90 aggregation, and that I-20 and GIP90 efficiently impair GPBP aggregation.
Deletion mutants were obtained using specific primers and PCR, followed by cloning of the resulting cDNAs in the pGBT9 and pGAD424 vectors. The assays were performed in SFY526 or HF7c Saccharomyces cerevisiae strains, with pGBT9 as GAL4 binding domain vector and pGAD424 as GAL4 activation domain vector, by the lift colony assay procedure. Briefly, the yeast cells were co-transformed with constructs of both binding domain and activation domain vectors, and the co-transformants were selected in medium deficient in both tryptophan and leucine. After five days of incubation at 30° C. the colonies were tested for the expression of β-galactosidase with X-Gal substrate (0.75 mg/ml). […] When the assays were performed with the HF7c strain, the interactions were assessed by the lift colony assay procedure and by growth in medium deficient in histidine, tryptophan and leucine. For yeast three-hybrid system, we used the pBRIDGE vector, which allows the conditional expression of a third protein apart from the usual GAL4 binding and activation domain-fusion proteins of the two-hybrid system. In this case, the expression of GPBP or I-20 or GIP90 was driven by Met25 promoter, active in absence of methionine. In these experiments, the transformed SFY526 cells were plated in medium deficient in tryptophan, leucine and methionine, and subjected to the colony lift assay after five days at 30° C. In the case of the strain HF7c the colonies grown in the cited plates were streaked on medium with the additional deficiency of histidine.

B1: Goodpasture antigen binding protein (GPBP) (enzyme, UniProt Q9Y5P4 1-624, looked up)
chain: MSDNQSWNSSGSEEDPETESGPPVERCGVLSKWTNYIHGWQDRWVVLKNNALSYYKSEDETEYGCRGSICLSKAVITPHDFDECRFDISVNDSVWYLRAQDPDHRQQWIDAIEQHKTESGYGSESSLRRHGSMVSLVSGASGYSATSTSSFKKGHSLREKLAEMETFRDILCRQVDTLQKYFDACADAVSKDELQRDKVVEDDEDDFPTTRSDGDFLHSTNGNKEKLFPHVTPKGINGIDFKGEAITFKATTAGILATLSHCIELMVKREDSWQKRLDKETEKKRRTEEAYKNAMTELKKKSHFGGPDYEEGPNSLINEEEFFDAVEAALDRQDKIEEQSQSEKVRLHWPTSLPSGDAFSSVGTHRFVQKPYSRSSSMSSIDLVSASDDVHRFSSQVEEMVQNHMTYSLQDVGGDANWQLVVEEGEMKVYRREVEENGIVLDPLKATHAVKGVTGHEVCNYFWNVDVRNDWETTIENFHVVETLADNAIIIYQTHKRVWPASQRDVLYLSVIRKIPALTENDPETWIVCNFSVDHDSAPLNNRCVRAKINVAMICQTLVSPPEGNQEISRDNILCKITYVANVNPGGWAPASVLRAVAKREYPKFLKRFTSYVQEKTAGKPILF
notes: Protein kinase; Fusion parts are not written as pieces
For B1, the binding result in the test with DOC1-related protein is on record as “no binding”; in test [1] it was “no binding”; in test [2] it was “no binding”; with GIP130a, “binds”.
